Each block holds one molecule with its values, some of them ahead of it.
Assays:
[1] = biological target: MART-1 peptide on HLA-A2, on HLA-A2 positive SupT1 cells expressing Ii L17A/RRP MART-1; assay: flow cytometry; HLA-A2 positive SupT1 cells expressing Ii L17A/RRP MART-1, 10 nM sTcR, anti-His-PE
[2] = biological target: MART-1 peptide on HLA-A2, on HLA-A2 positive SupT1 cells expressing Iiwt MART-1; assay: flow cytometry; HLA-A2 positive SupT1 cells expressing Iiwt MART-1, 10 nM sTcR, anti-His-PE
[3] = biological target: HLA-A2 single-chain trimer (SCT) combined with MART-1 peptide; assay: flow cytometry; SupT1 cells expressing SCT-MART-1, 10 nM sTcR 15 min at RT, anti-His-PE
[4] = biological target: the molecule itself; assay: self-association (trimer); western blot of boiled and non-boiled whole cell lysates of transfected Hek cells, anti Ii M-B741
Description: Hek cells were transfected as indicated. After 24 hours, whole cell lysates (WCL) were subjected to 4-20% SDS-PAGE Tris-HEPES-SDS gels, transferred to PVDF membranes and probed with anti Ii antibody, M-B741. The samples were either boiled or non-boiled before gel loading. Ii trimers and monomers are shown. Detection of actin in the WCL was used as loading control using anti-actin antibodies.
In order to function as a chaperone for MHC II antigen presentation, Ii depends on two important features; the ability to trimerize[17] and to traffic to the endosomal pathway. The trimerization of IiRRP/L17A was analyzed by western blotting (WB).

MFI [1]: 194 MFI
percent of cells stained [1]: 21%
MFI [2]: 105 MFI
percent of cells stained [2]: 2%
MFI [3]: 37000 MFI
percent of cells stained [3]: 100%
Molecule: soluble form of DMF5 (MART-1 specific TcR)

B1: human invariant chain Iip33 wild type (other)
chain: MDDQRDLISNNEQLPMLGRRPGAPESKCSRGALYTGFSILVTLLLAGQATTAYFLYQQQGRLDKLTVTSQNLQLENLRMKLPKPPKPVSKMRMATPLLMQALPMGALPQGPMQNATKYGNMTEDHVMHLLQNADPLKVYPPLKGSFPENLRHLKNTMETIDWKVFESWMHHWLLFEMSRHSLEQKPTDAPPKESLELEDPSSGLGVTKQDLGPVPM
notes: Full length protein expressed in transfected Hek cells and analysed in whole cell lysates; also called Iiwt; Ii wt
binding result [4]: binds

B2: invariant chain double leucine mutant Ii L7A/L17A (other)
chain: MDDQRDAISNNEQLPMAGRRPGAPESKCSRGALYTGFSILVTLLLAGQATTAYFLYQQQGRLDKLTVTSQNLQLENLRMKLPKPPKPVSKMRMATPLLMQALPMGALPQGPMQNATKYGNMTEDHVMHLLQNADPLKVYPPLKGSFPENLRHLKNTMETIDWKVFESWMHHWLLFEMSRHSLEQKPTDAPPKESLELEDPSSGLGVTKQDLGPVPM
notes: Expressed in Hek cells and analysed in lysates
binding result [4]: binds

B3: invariant chain trafficking mutant Ii RRP/L17A (other)
chain: MDDRRPLISNNEQLPMAGRRPGAPESKCSRGALYTGFSILVTLLLAGQATTAYFLYQQQGRLDKLTVTSQNLQLENLRMKLPKPPKPVSKMRMATPLLMQALPMGALPQGPMQNATKYGNMTEDHVMHLLQNADPLKVYPPLKGSFPENLRHLKNTMETIDWKVFESWMHHWLLFEMSRHSLEQKPTDAPPKESLELEDPSSGLGVTKQDLGPVPM
notes: Expressed in Hek cells and analysed in lysates; also called IiL17A/RRP; Ii L17A RRP
binding result [4]: binds

From patent US20200009238A1 (UNIVERSITETET I OSLO, published 2020)
